Holding throughout (test): cell-based or functional assay
Test [1] concerns the target hGLP-1R (Homo sapiens, UniProt P43220).
The target in test [2] is human glucagon receptor (human) (UniProt P47871).
For test [3], the target named is T1, human GIP receptor (human) (UniProt P48546).
T1 sequence (looked up): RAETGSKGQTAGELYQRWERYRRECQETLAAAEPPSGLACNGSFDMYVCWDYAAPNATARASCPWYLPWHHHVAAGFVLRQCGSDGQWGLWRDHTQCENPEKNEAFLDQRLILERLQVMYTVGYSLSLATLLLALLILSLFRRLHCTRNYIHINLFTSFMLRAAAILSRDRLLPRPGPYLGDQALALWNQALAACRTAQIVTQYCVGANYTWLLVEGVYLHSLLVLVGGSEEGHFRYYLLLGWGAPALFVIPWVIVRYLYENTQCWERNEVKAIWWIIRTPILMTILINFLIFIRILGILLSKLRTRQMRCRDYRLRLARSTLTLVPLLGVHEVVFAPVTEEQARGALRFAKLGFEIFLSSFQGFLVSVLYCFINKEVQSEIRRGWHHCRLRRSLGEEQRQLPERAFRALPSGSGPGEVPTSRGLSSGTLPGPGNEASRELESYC

The results in this text go back to US20240270821A1, “GIP/GLP1/GCG TRI-RECEPTOR AGONISTS AND USES THEREOF” (priority 2023, published 2024).

Numbering of substitutions follows the chain as printed.

Chain of human glucagon receptor (human) (P47871 26-477): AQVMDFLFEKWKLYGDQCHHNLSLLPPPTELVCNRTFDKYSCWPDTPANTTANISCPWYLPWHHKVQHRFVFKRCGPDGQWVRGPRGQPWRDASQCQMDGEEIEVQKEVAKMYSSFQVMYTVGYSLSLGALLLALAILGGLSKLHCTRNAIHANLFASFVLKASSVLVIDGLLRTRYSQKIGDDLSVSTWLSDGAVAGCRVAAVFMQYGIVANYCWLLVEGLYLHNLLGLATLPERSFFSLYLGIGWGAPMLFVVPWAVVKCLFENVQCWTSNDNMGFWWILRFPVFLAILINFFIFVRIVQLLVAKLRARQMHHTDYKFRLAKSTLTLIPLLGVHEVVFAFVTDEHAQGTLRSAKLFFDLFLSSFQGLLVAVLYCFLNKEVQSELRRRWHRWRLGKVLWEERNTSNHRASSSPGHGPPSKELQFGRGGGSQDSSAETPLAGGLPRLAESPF
Chain of hGLP-1R (P43220 24-463): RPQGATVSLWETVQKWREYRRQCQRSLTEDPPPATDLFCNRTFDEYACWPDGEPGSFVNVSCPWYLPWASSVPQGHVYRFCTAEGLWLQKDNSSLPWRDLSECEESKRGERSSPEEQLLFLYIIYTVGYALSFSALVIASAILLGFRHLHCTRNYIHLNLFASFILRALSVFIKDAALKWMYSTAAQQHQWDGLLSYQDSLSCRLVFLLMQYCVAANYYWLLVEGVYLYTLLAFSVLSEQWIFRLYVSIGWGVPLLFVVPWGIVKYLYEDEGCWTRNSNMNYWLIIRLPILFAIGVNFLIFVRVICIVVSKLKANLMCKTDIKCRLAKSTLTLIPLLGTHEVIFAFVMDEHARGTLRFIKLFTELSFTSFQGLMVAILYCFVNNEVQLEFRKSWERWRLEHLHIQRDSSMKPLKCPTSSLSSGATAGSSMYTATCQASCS

B1: Example 626 (peptide)
chain: YXQGTXTSDXSIXLDKKAQXAFIEYLEEGGPSSGAPPPEGTGE
modifications: non-natural residues, (γGlu)2-diacid acylated Lys, C-terminal amide; synthetic construct; SITE 2: note = 2-Aminoisobutyric Acid; SITE 6: note = alpha-methyl-2-fluoro-L-phenylalanine; SITE 10: note = 3-(4-Pyridyl)-L-alanine; SITE 13: note = alpha-methyl-leucine; SITE 17: note = Lysine is chemically modified through conjugation of the epsilon-amino group of the Lysine
Regarding B1, the Relative cAMP EC50 in test [1] was 0.889 nM; in test [2] it was 8.72 nM; in test [3], 0.0192 nM. Moreover, the cAMP Rel EC50 (in the presence of 1% HSA) turned out to be 60.8 nM in test [1], 546 nM in test [2] and 1.75 nM in test [3].

B2: Example 619 (peptide)
chain: B1 chain with X13L, E39S, T41G
modifications: non-natural residues; Lys acylated C18 diacid; C-terminal amide; synthetic construct; SITE 2: note = 2-Aminoisobutyric Acid; SITE 6: note = alpha-methyl-2-fluoro-L-phenylalanine; SITE 10: note = 3-(4-Pyridyl)-L-alanine; SITE 17: note = Lysine is chemically modified through conjugation of the epsilon-amino group of the Lysine side chain with (gamma-Glu)2-CO-(CH2)1
Take B2: the Relative cAMP EC50 in test [1] worked out at 0.992 nM; in test [2], 6.34 nM; in test [3] it was 0.0685 nM. In addition, the cAMP Rel EC50 (in the presence of 1% HSA) in test [1] came to 94 nM; in test [2], 819 nM; in test [3] it was 6.78 nM.

B3: Example 624 (peptide)
chain: B1 chain with A35E, E39S
modifications: non-natural residues; lipidated Lys; C-terminal amide; synthetic construct; SITE 2: note = 2-Aminoisobutyric Acid; SITE 6: note = alpha-methyl-2-fluoro-L-phenylalanine; SITE 10: note = 3-(4-Pyridyl)-L-alanine; SITE 13: note = alpha-methyl-leucine; SITE 17: note = Lysine is chemically modified through conjugation of the epsilon-amino group of the Lysine
On to B3, for which the Relative cAMP EC50 in test [1] stood at 0.95 nM; in test [2], 8.42 nM; in test [3], 0.0222 nM. Besides, the cAMP Rel EC50 (in the presence of 1% HSA) was 63.4 nM in test [1], 808 nM in test [2] and 1.17 nM in test [3].

B4: Example 634 (peptide)
chain: B1 chain with E27Q, A35E, E39S, T41S, G42E
modifications: (γGlu)2-C18 diacid on Lys; non-natural residues; amide; synthetic construct; SITE 2: note = 2-Aminoisobutyric Acid; SITE 6: note = alpha-methyl-2-fluoro-L-phenylalanine; SITE 10: note = 3-(4-Pyridyl)-L-alanine; SITE 13: note = alpha-methyl-leucine; SITE 17: note = Lysine is chemically modified through conjugation of the epsilon-amino group of the Lysine
B4: the Relative cAMP EC50 in test [1] came to 0.403 nM; in test [2], 6.49 nM; in test [3], 0.0195 nM. Moreover, the cAMP Rel EC50 (in the presence of 1% HSA) in test [1] turned out to be 34.9 nM; in test [2], 979 nM; in test [3] it was 1.48 nM.

B5: Example 612 (peptide)
chain: B1 chain with X13L, E39S, T41G, G42E
modifications: Aib, alpha-methyl-2F-Phe, 4Pal, lipidated Lys, amide; synthetic construct; SITE 2: note = 2-Aminoisobutyric Acid; SITE 6: note = alpha-methyl-2-fluoro-L-phenylalanine; SITE 10: note = 3-(4-Pyridyl)-L-alanine; SITE 17: note = Lysine is chemically modified through conjugation of the epsilon-amino group of the Lysine side chain with (gamma-Glu)2-CO-(CH2)1
Take B5: the Relative cAMP EC50 in test [1] was found to be 1.21 nM; in test [2], 7.13 nM; in test [3] it was 0.087 nM. Further, the values for the cAMP Rel EC50 (in the presence of 1% HSA) in test [1], in test [2] and in test [3] were 126 nM, 640 nM and 7.58 nM, respectively.

B6: Example 628 (peptide)
chain: B1 chain with A35E
modifications: non-natural residues; lipidated Lys; C-terminal amide; synthetic construct; SITE 2: note = 2-Aminoisobutyric Acid; SITE 6: note = alpha-methyl-2-fluoro-L-phenylalanine; SITE 10: note = 3-(4-Pyridyl)-L-alanine; SITE 13: note = alpha-methyl-leucine; SITE 17: note = Lysine is chemically modified through conjugation of the epsilon-amino group of the Lysine
Consider B6, for which the values for the Relative cAMP EC50 in test [1], in test [2] and in test [3] were 1.11 nM, 7.47 nM and 0.0278 nM, respectively. The cAMP Rel EC50 (in the presence of 1% HSA) in test [1] is 79.8 nM; in test [2] it was 651 nM; in test [3], 1.87 nM.

B7: Example 613 (peptide)
chain: YXQGTXTSDXSIXLDXKAQXEFIEXLLEGGPSSGAPPPSGE
modifications: Aib, αMeF(2F), 4Pal, Orn, (AEEA)2-γGlu-C18 diacid, amide; synthetic construct; SITE 2: note = 2-Aminoisobutyric Acid; SITE 6: note = alpha-methyl-2-fluoro-L-phenylalanine; SITE 10: note = 3-(4-Pyridyl)-L-alanine; SITE 13: note = alpha-methyl-leucine; SITE 16: note = L-ornithine; SITE 17: note = Lysine is chemically modified through conjugation of the epsil
Consider B7, for which the Relative cAMP EC50 turned out to be 0.698 nM in test [1], 20.4 nM in test [2] and 0.00925 nM in test [3]. Further, the cAMP Rel EC50 (in the presence of 1% HSA) in test [1] is 81.6 nM; in test [2], 1410 nM; in test [3], 0.791 nM.

B8: Example 616 (peptide)
chain: B7 chain with L27I
modifications: non-natural residues; acylated Lys; C-terminal amide; synthetic construct; SITE 2: note = 2-Aminoisobutyric Acid; SITE 6: note = alpha-methyl-2-fluoro-L-phenylalanine; SITE 10: note = 3-(4-Pyridyl)-L-alanine; SITE 13: note = alpha-methyl-leucine; SITE 16: note = L-ornithine; SITE 17: note = Lysine is chemically modified through conjugation of the epsil
Take B8: the Relative cAMP EC50 stood at 0.29 nM in test [1], 6.58 nM in test [2] and 0.00727 nM in test [3]. Moreover, the cAMP Rel EC50 (in the presence of 1% HSA) came out at 28.9 nM in test [1], 734 nM in test [2] and 0.467 nM in test [3].

B9: Example 615 (peptide)
chain: B7 chain
modifications: Aib, αMeF(2F), 4Pal, Orn, Me4Pal, αMeY; acylated lysine; amide; synthetic construct; SITE 2: note = 2-Aminoisobutyric Acid; SITE 6: note = alpha-methyl-2-fluoro-L-phenylalanine; SITE 10: note = 3-(4-Pyridyl)-L-alanine; SITE 13: note = alpha-methyl-leucine; SITE 16: note = L-ornithine; SITE 17: note = Lysine is chemically modified through conjugation of the epsil
As for B9, the Relative cAMP EC50 in test [1] is 0.575 nM; in test [2] it was 3.93 nM; in test [3] it was 0.00825 nM. The cAMP Rel EC50 (in the presence of 1% HSA) is 82.9 nM in test [1], 697 nM in test [2] and 0.95 nM in test [3].

B10: Example 614 (peptide)
chain: B7 chain with L27I
modifications: non-natural residues, acylated Lys, C-terminal amide; synthetic construct; SITE 2: note = 2-Aminoisobutyric Acid; SITE 6: note = alpha-methyl-2-fluoro-L-phenylalanine; SITE 10: note = 3-(4-Pyridyl)-L-alanine; SITE 13: note = alpha-methyl-leucine; SITE 16: note = L-ornithine; SITE 17: note = Lysine is chemically modified through conjugation of the epsil
Take B10: the Relative cAMP EC50 was found to be 0.251 nM in test [1], 6.36 nM in test [2] and 0.0065 nM in test [3]. Besides, the cAMP Rel EC50 (in the presence of 1% HSA) amounted to 33.2 nM in test [1], 724 nM in test [2] and 0.597 nM in test [3].

B11: Example 59 (peptide)
chain: YXQGTFTSDFSXXLDKKAQXAFIEYLLEGGPSSGEPPPSEG
modifications: synthetic construct; SITE 2: note = 2-Aminoisobutyric Acid; SITE 12: note = L-ornithine; SITE 13: note = alpha-methyl-leucine; SITE 17: note = Lysine is chemically modified through conjugation of the epsilon-amino group of the Lysine side chain with (2-[2-(2-Amino-ethoxy)-ethoxy]-acetyl)-(gamma-Glu)
Take B11: the Relative cAMP EC50 was 4.8 nM in test [1], 6.57 nM in test [2] and 0.54 nM in test [3]. The values for the cAMP Rel EC50, nM (in the presence of 1% HSA) in test [1], in test [2] and in test [3] were 1370 nM, 2160 nM and 166 nM, respectively.
